In the supplement of paper PMC9170038:

System: K4 kissing-loop RNA reporter
Test: apparent KD of K4 kissing-loop reporter; higher = weaker reporter binding
Details: Eterna round: R107
Description: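 RNA-MaP round R107: designed RNA switches with theophylline, tryptophan, arginine or FMN aptamers are transcribed on-chip within common flanks. They are titrated with a labelled K4 kissing-loop RNA reporter in RNA-MaP buffer (100 mM Tris pH 7.5, 80 mM KCl, 4 mM MgCl2), without ligand or with the indicated ligand. Median apparent KD per design.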

[1] = input ligand: theophylline 20 uM
[2] = input ligand: tryptophan 2.4 mM
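Note: bound reporter read as fluorescence of individual clusters on recovered sequencing chips by microscopy, with normalized cluster intensities fitted with a binding model.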

Row | Sequence | apparent KD of K4 kissing-loop reporter (input ligand: FMN 200 uM) [nM] | apparent KD of K4 kissing-loop reporter (input ligand: arginine 13.2 mM) [nM] | apparent KD of K4 kissing-loop reporter (input ligand: none) [nM] | apparent KD of K4 kissing-loop reporter [1] [nM] | apparent KD of K4 kissing-loop reporter [2] [nM]
1 | UUUUUAAUCGCAGAUACCAGUCCAGAAUAAAUACUAUAGUGAUGUUAUAAAUAAGGAAAGGACCCUUGGCAGCUGUACUAUAUUU [AstrosSsTheB#7] | 433 | 465 | 668 | 372 | 524
2 | CCUAUCUCAUACGAUACCAGUCUAUUAAAACGAGUGAUGUUCGAAAAUUUGCCAUAUAAUGACCCUUGGCAGCGUAUGGGAUAGG [Ex Theophylline B K4 8] | 201 | 185 | 203 | 211 | 176
3 | GCUAUGGUAGGAAGGAGCGCGGACGAUAUUUAUCGAGUGAUGUUCGAUUCAUUAAUUUGAACGCAGGUAGGUCGCCUACUAUAGC [Arginine B K4 29] | 138 | 148 | 160 | 134 | 161
4 | CUACGACAGGAAGGAUAUCGUGUGGAGAGCAGUUAUUUAAAGGUAGUGAUGUUACAGGAGACUGUUCGAGAAGGUCCUCAGUUAC [theeternabot_exclusion_KL_FMN_B_32] | 104 | 98.6 | 119 | 93.3 | 103
5 | UAAUUUAUAACUUUUAUAUAAUAAUCAGAUACCAGUGAUUAAUGUCACCCUUGGCAGCUGUAUAGAGUGAUGUUCUAAUGCUUAA [JR_SSTheophyA_Sub023] | 204 | 198 | 147 | 223 | 149
6 | GCGGCCCAGACGGAUACCAGUGACCCGCUGGGAACCGCGGGCCCAGAGUGAUGUUCGGGACACCCUUGGCAGCCGCCUGGGUCGC [#2 Same State - Theophylline B Attempt #19 (HarryS)] | 732 | 293 | 491 | 606 | 448
7 | UGAUAGGACAGAAGGAGCGGAAGUGAUGUUUCCAAUGGAAUUAAGGUGUCAAAGACACCCUUCCAGGUAGGUCGCUGUCCUAUCU [ArgBX 18 #Palindromic #SwitchBubble #StaticStem] | 156 | 161 | 155 | 159 | 145
8 | AAAUUUGCCACUGAUACCAGCCAGUGAUGUUGGCGGUAGUUCUAUGGUACCAUACAUUGUGGCCCUUGGCAGCAGGGCACAGAGC [Raxeisra] | 115 | 99.8 | 92.7 | 115 | 113
9 | UAAAUAAUAAAACGAGUGAUGUUCGACGAUACCAGCCUCGAUAGAGGCCCUUGGCAGCGUAUGUGAUCACUAAGCCAAGGAAUAA [#02 K4 Theophylline A Exclusion] | 164 | 175 | 167 | 196 | 132
10 | AUUUGCUAGAAAGGAUAUAUUAGCUUGGUCACCGCGUCCGAUGGUUAAACUUCGUGAGUGAUGUUCAUAGAAGGUUCAGCCUCGA [theeternabot_exclusion_KL_FMN_B_20] | 155 | 122 | 146 | 138 | 124
11 | AAACAUCACUGGGAGUGAUGUUCUCAGUGACGAGGACCGGUACGGCCGCCACUCGCGAGAGAUAUAGUCUAGUAUUGACUGCAUU [Excl Tryptophan A V11] | 242 | 244 | 231 | 339 | 348
12 | UGAUACCAGACGGCCGCCACUGCACCAGUCAAUGACUGAGUGUAGUAUUGCUCAGUGAUGUUGAGUAGGACCGGGUCUGGUAUCU [Mod of Eli's TrypBX 8] | 109 | 113 | 108 | 128 | 115
13 | GUCAACCCAGCUGAUACCAGCCGGUUACGCACAUGCACACCCAGUGAUGUUGGGUAUUAGGGCCCUUGGCAGCAGCCUCUUGGCU [theeternabot_sameState_KL_Theo_B_30] | 165 | 162 | 169 | 182 | 149
14 | UUUAUAAAGUCGGCCGCCACUGGAUUUAUAUUUGUUUCGUCUGGAUCAAAGUGAUGUUUUGAGUCCAGGACCGGGACAUUUGUUA [whbob_Ex_Tryp_B_w37] | 80.7 | 71.1 | 74.6 | 69.1 | 93.2
15 | GCUUUCCGUGCGGCCGCCACUGAUCUAAGUGAUGUUUAGAUCGCAUUCGAACCGGUUACCCAGAGCAGGACCGGGCACCAGCGCU [theeternabot_exclusion_KL_Trp_B_35] | 97 | 84.9 | 89.8 | 90.1 | 91.9
16 | GUUAAGUCGCGAAGGAGCGCGAACUAACAACGCAGUGAUGUUGCGUUGUACGUAGUAUAAUCGCAGGUAGGUCGCGCGACAGGCC [Arg B SS t16] | 116 | 85.5 | 98.4 | 81 | 92.3
17 | GCACUCGAAAGAGUGCCUCUCGCCAUCACGUAGGAUAUCUGGAAACAGAGAAGGAUGGCAGUGAUGUUGCUUUCGAUGGCGAGAG | 165 | 137 | 180 | 174 | 188
18 | UGACUACAGGAAUAAUAAUCUUAGUGAUGUUAGGAUAUGCUGAUAAGCAGAAGGAACUGAGAUCGAAAGAUCUCAAAAGUAGUCU [#05 K4 FMN A Exclusion] | 445 | 167 | 202 | 236 | 199
19 | UGAUAGCCAGUGAUGUUGGCAUGUACUGAAGGAGCGCGUGGAAACGCAGGUAGGUCGCAGUUCCUUGCCAAUUGAUCGAAAGAUC [#09 K4 Arginine A Exclusion] | 249 | 288 | 320 | 395 | 239
20 | CCUAUCUCAUACGAUACCAGUGAAUUUAUGUUUAUUAGCAGUGAUGUUGCAUUCCAAGUACACCCUUGGCAGCGUAUGGGAUAGG [Ex Theophylline B K4 23] | 178 | 201 | 205 | 193 | 151
21 | UUAGCAGUAUACUGCAAGACCUAUACUGAUACCAGAGUCAAUUGACUCCCUUGGCAGCGGAUCGAGUGAUGUUCGUAAGGUCAUU [AK4.2 SS Theophylline A] | 743 | 647 | 955 | 792 | 685
